Test results published in US20240132624A1 (Ablynx, published 2024).
Substitutions are numbered along the chain they refer to.

B1: T0263018B11 A33H (VHH, name in Kabat numbering)
VHH: EVQLVESGGGVVQPGGSLRLSCAASGFTFSSYHMYWVRQAPGKGLEWVSAISSGGGSTDYADSVKGRFTISRDNSKNTLYLQMNSLRPEDTALYYCAADTLYTSLTWYSYWGQGTLVTVSS
notes: FLAG3-His6 tagged
B2: T0263018B11 T57R (VHH, name in Kabat numbering)
VHH: B1 VHH with H33A, T58R
notes: FLAG3-His6 tagged
B3: T0263018B11 T28G (VHH, name in Kabat numbering)
VHH: B1 VHH with T28G, H33A
notes: FLAG3-His6 tagged
B4: T0263018B11 T96G (VHH, name in Kabat numbering)
VHH: B1 VHH with H33A, T100G
notes: FLAG3-His6 tagged
B5: T0263018B11 Y32N (VHH, name in Kabat numbering)
VHH: B1 VHH with Y32N, H33A
notes: FLAG3-His6 tagged
B6: T0263018B11 T57M (VHH, name in Kabat numbering)
VHH: B1 VHH with H33A, T58M
notes: FLAG3-His6 tagged
B7: T0263018B11 T57E (VHH, name in Kabat numbering)
VHH: B1 VHH with H33A, T58E
notes: FLAG3-His6 tagged
B8: T0263018B11 F29Q (VHH, name in Kabat numbering)
VHH: B1 VHH with F29Q, H33A
notes: FLAG3-His6 tagged
B9: T0263018B11 T57D (VHH, name in Kabat numbering)
VHH: B1 VHH with H33A, T58D
notes: FLAG3-His6 tagged
B10: T0263018B11 T57G (VHH, name in Kabat numbering)
VHH: B1 VHH with H33A, T58G
notes: FLAG3-His6 tagged
B11: T0263018B11 Y32M (VHH, name in Kabat numbering)
VHH: B1 VHH with Y32M, H33A
notes: FLAG3-His6 tagged
B12: T0263018B11 S56E (VHH, name in Kabat numbering)
VHH: B1 VHH with H33A, S57E
notes: FLAG3-His6 tagged
B13: T0263018B11 A93T (VHH, name in Kabat numbering)
VHH: B1 VHH with H33A, A97T
notes: FLAG3-His6 tagged
B14: T0263018B11 S30M (VHH, name in Kabat numbering)
VHH: B1 VHH with S30M, H33A
notes: FLAG3-His6 tagged
B15: T0263018B11 S100A (VHH, name in Kabat numbering)
VHH: B1 VHH with H33A, S104A
notes: FLAG3-His6 tagged
B16: T0263018B11 S100W (VHH, name in Kabat numbering)
VHH: B1 VHH with H33A, S104W
notes: FLAG3-His6 tagged
B17: T0263018B11 F29P (VHH, name in Kabat numbering)
VHH: B1 VHH with F29P, H33A
notes: FLAG3-His6 tagged
B18: T0263018B11 D58A (VHH, name in Kabat numbering)
VHH: B1 VHH with H33A, D59A
notes: FLAG3-His6 tagged
B19: T0263018B11 F29I (VHH, name in Kabat numbering)
VHH: B1 VHH with F29I, H33A
notes: FLAG3-His6 tagged
B20: T0263018B11 F27I (VHH, name in Kabat numbering)
VHH: B1 VHH with F27I, H33A
notes: FLAG3-His6 tagged
B21: T0263018B11 G26L (VHH, name in Kabat numbering)
VHH: B1 VHH with G26L, H33A
notes: FLAG3-His6 tagged
B22: T0263018B11 A33P (VHH, name in Kabat numbering)
VHH: B1 VHH with H33P
notes: FLAG3-His6 tagged
B23: T0263018B11 T57A (VHH, name in Kabat numbering)
VHH: B1 VHH with H33A, T58A
notes: FLAG3-His6 tagged
B24: T0263018B11 T57K (VHH, name in Kabat numbering)
VHH: B1 VHH with H33A, T58K
notes: FLAG3-His6 tagged
B25: T0263018B11 D58S (VHH, name in Kabat numbering)
VHH: B1 VHH with H33A, D59S
notes: FLAG3-His6 tagged
B26: T0263018B11 G54D (VHH, name in Kabat numbering)
VHH: B1 VHH with H33A, G55D
notes: FLAG3-His6 tagged
B27: T0263018B11 A33N (VHH, name in Kabat numbering)
VHH: B1 VHH with H33N
notes: FLAG3-His6 tagged
B28: T0263018B11 F27M (VHH, name in Kabat numbering)
VHH: B1 VHH with F27M, H33A
notes: FLAG3-His6 tagged
B29: T0263018B11 S56G (VHH, name in Kabat numbering)
VHH: B1 VHH with H33A, S57G
notes: FLAG3-His6 tagged
B30: T0263018B11 S31A (VHH, name in Kabat numbering)
VHH: B1 VHH with S31A, H33A
notes: FLAG3-His6 tagged
B31: T0263018B11 G26K (VHH, name in Kabat numbering)
VHH: B1 VHH with G26K, H33A
notes: FLAG3-His6 tagged
B32: T0263018B11 G54V (VHH, name in Kabat numbering)
VHH: B1 VHH with H33A, G55V
notes: FLAG3-His6 tagged
B33: T0263018B11 G26A (VHH, name in Kabat numbering)
VHH: B1 VHH with G26A, H33A
notes: FLAG3-His6 tagged
B34: T0263018B11 L100aV (VHH, name in Kabat numbering)
VHH: B1 VHH with H33A, L105V
notes: FLAG3-His6 tagged
B35: T0263018B11 W100cE (VHH, name in Kabat numbering)
VHH: B1 VHH with H33A, W107E
notes: FLAG3-His6 tagged
B36: T0263018B11 T28S (VHH, name in Kabat numbering)
VHH: B1 VHH with T28S, H33A
notes: FLAG3-His6 tagged
B37: T0263018B11 W100cM (VHH, name in Kabat numbering)
VHH: B1 VHH with H33A, W107M
notes: FLAG3-His6 tagged
B38: T0263018B11 T28M (VHH, name in Kabat numbering)
VHH: B1 VHH with T28M, H33A
notes: FLAG3-His6 tagged
B39: T0263018B11 F29Y (VHH, name in Kabat numbering)
VHH: B1 VHH with F29Y, H33A
notes: FLAG3-His6 tagged
B40: T0263018B11 D58T (VHH, name in Kabat numbering)
VHH: B1 VHH with H33A, D59T
notes: FLAG3-His6 tagged
B41: T0263018B11 S100L (VHH, name in Kabat numbering)
VHH: B1 VHH with H33A, S104L
notes: FLAG3-His6 tagged
B42: T0263018B11 T57Q (VHH, name in Kabat numbering)
VHH: B1 VHH with H33A, T58Q
notes: FLAG3-His6 tagged
B43: T0263018B11 Y98L (VHH, name in Kabat numbering)
VHH: B1 VHH with H33A, Y102L
notes: FLAG3-His6 tagged
B44: T0263018B11 S31G (VHH, name in Kabat numbering)
VHH: B1 VHH with S31G, H33A
notes: FLAG3-His6 tagged
B45: T0263018B11 Y32A (VHH, name in Kabat numbering)
VHH: B1 VHH with Y32A, H33A
notes: FLAG3-His6 tagged
B46: T0263018B11 T57H (VHH, name in Kabat numbering)
VHH: B1 VHH with H33A, T58H
notes: FLAG3-His6 tagged
B47: T0263018B11 S30P (VHH, name in Kabat numbering)
VHH: B1 VHH with S30P, H33A
notes: FLAG3-His6 tagged
B48: T0263018B11 Y98W (VHH, name in Kabat numbering)
VHH: B1 VHH with H33A, Y102W
notes: FLAG3-His6 tagged
B49: T0263018B11 G54T (VHH, name in Kabat numbering)
VHH: B1 VHH with H33A, G55T
notes: FLAG3-His6 tagged
B50: T0263018B11 S31V (VHH, name in Kabat numbering)
VHH: B1 VHH with S31V, H33A
notes: FLAG3-His6 tagged
B51: T0263018B11 T96W (VHH, name in Kabat numbering)
VHH: B1 VHH with H33A, T100W
notes: FLAG3-His6 tagged

Biological target: T1, human FcRn/b2M (human, UniProt P61769 21-119, biotinylated)
T1 construct: bought recombinant biotinylated protein (ACRO FCM-H82W4 or Immunitrack ITF01); also called hFcRn; hFcRn/hb2M
T1 sequence (chain, as listed by the source limits assumed, chain 1 of 2): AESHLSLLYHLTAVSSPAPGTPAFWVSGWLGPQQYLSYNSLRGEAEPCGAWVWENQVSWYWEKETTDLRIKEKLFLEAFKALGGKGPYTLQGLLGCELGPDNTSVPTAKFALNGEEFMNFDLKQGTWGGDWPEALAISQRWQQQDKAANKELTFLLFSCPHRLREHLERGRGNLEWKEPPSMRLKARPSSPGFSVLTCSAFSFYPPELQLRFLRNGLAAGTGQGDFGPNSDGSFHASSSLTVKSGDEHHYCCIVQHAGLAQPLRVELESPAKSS
T1 sequence (P61769 21-119 limits assumed, chain 2 of 2): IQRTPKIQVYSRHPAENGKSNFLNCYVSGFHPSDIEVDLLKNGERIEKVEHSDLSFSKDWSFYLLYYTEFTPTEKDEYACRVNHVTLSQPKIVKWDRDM
Experiment: SPR pH 6.0;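 further: surface plasmon resonance kinetics at 25 °C, diluted periplasmic extracts injected over immobilized ligand surfaces, 120 s association then 600–3600 s dissociation, running buffer containing 150 mM NaCl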
Protocol: (§1) All kinetic measurements have been performed on ProteOn XPR36 (BioRad Laboratories, Inc.), MASS-2 (Sierra sensors, Gmbh) or SPR-32 (Bruker Corporation). […] The phytip purified periplasmic extracts were diluted 1:10 in running buffer (CPA+150 mM NaCl+0.005% Tw20 at pH 5.5, pH 6.0 or pH 7.4) and injected over the ligand surfaces (association: 120 s at 45 μL/min; dissociation: 600s-3600 s at 45 μL/min). Experiments were carried out at 25° C.

In order of falling koff:
1. B4  0.014 s⁻¹
2. B18  0.0089 s⁻¹
3. B11  0.006 s⁻¹
4. B12  0.0026 s⁻¹
5. B17  0.0026 s⁻¹
6. B5  0.0025 s⁻¹
7. B13  0.0025 s⁻¹
8. B8  0.0021 s⁻¹
9. B10  0.0013 s⁻¹
10. B6  0.00098 s⁻¹
11. B2  0.00086 s⁻¹
12. B1  0.00076 s⁻¹
13. B7  0.00076 s⁻¹
14. B3  0.00075 s⁻¹
15. B14  0.00074 s⁻¹
16. B9  0.00073 s⁻¹
17. B16  0.00062 s⁻¹
18. B15  0.00025 s⁻¹

Biological target: T2, cyno FcRn/b2M (cyno, UniProt Q8SPV9 24-297; Q8SPW0 21-119, biotinylated)
T2 construct: bought recombinant biotinylated protein (Immunitrack ITF05 or ACRO FCM-C82W5); also called cFcRn; cFcRn/cb2M
T2 sequence (Q8SPV9 24-297 limits assumed, chain 1 of 2): as the sequence (chain, as listed by the source limits assumed, chain 1 of 2) above, with N39D, E44Q, G99S, S189G, S190N, L217M, S269T counted along it
T2 sequence (Q8SPW0 21-119 limits assumed, chain 2 of 2): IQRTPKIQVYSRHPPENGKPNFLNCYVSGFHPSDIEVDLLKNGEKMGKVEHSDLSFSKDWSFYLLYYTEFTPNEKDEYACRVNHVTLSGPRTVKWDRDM
Experiment: SPR pH 6.0;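 further: surface plasmon resonance kinetics at 25 °C, diluted periplasmic extracts injected over immobilized ligand surfaces, 120 s association then 600–3600 s dissociation, running buffer containing 150 mM NaCl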
Protocol: as §1

In order of falling koff:
1. B4  0.0084 s⁻¹
2. B18  0.0026 s⁻¹
3. B11  0.0025 s⁻¹
4. B12  0.0019 s⁻¹
5. B13  0.0019 s⁻¹
6. B17  0.0019 s⁻¹
7. B5  0.0018 s⁻¹
8. B8  0.0017 s⁻¹
9. B19  0.0015 s⁻¹
10. B10  0.0011 s⁻¹
11. B22  0.00099 s⁻¹
12. B21  0.00087 s⁻¹
13. B1  0.00077 s⁻¹
14. B2  0.00071 s⁻¹
15. B6  0.0007 s⁻¹
16. B14  0.00069 s⁻¹
17. B9  0.00063 s⁻¹
18. B7  0.00055 s⁻¹
19. B20  0.00036 s⁻¹
20. B16  0.00029 s⁻¹
21. B15  0.00021 s⁻¹
22. B3  0.0002 s⁻¹

Biological target: T1, human FcRn/b2M
Experiment: SPR pH 7.4;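 further: surface plasmon resonance kinetics, periplasmic extracts diluted 1:10 flowed over immobilized target at 25 °C, 120 s association then 600–3600 s dissociation, buffer with 150 mM NaCl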
Protocol: as §1

In order of rising koff:
1. B21  0.041 s⁻¹
2. B22  0.041 s⁻¹
3. B20  0.045 s⁻¹

Biological target: T2, cyno FcRn/b2M
Experiment: SPR pH 7.4;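 further: surface plasmon resonance kinetics, periplasmic extracts diluted 1:10 flowed over immobilized target at 25 °C, 120 s association then 600–3600 s dissociation, buffer with 150 mM NaCl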
Protocol: as §1

In order of rising koff:
1. B15  0.0099 s⁻¹
2. B16  0.015 s⁻¹
3. B14  0.022 s⁻¹
4. B7  0.024 s⁻¹
5. B2  0.026 s⁻¹
6. B9  0.026 s⁻¹
7. B6  0.027 s⁻¹
8. B3  0.028 s⁻¹
9. B20  0.031 s⁻¹
10. B18  0.036 s⁻¹
11. B1  0.037 s⁻¹
12. B10  0.04 s⁻¹
13. B22  0.045 s⁻¹
14. B21  0.054 s⁻¹
15. B19  0.083 s⁻¹
16. B5  0.083 s⁻¹
17. B8  0.088 s⁻¹
18. B12  0.1 s⁻¹
19. B13  0.12 s⁻¹
20. B11  0.18 s⁻¹
21. B4  0.21 s⁻¹

Biological target: T2, cyno FcRn/b2M
Experiment: SPR off-rate; pH 7.4 vs pH 6.0;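 further: surface plasmon resonance with diluted periplasmic extracts flowed over ligand surfaces, 120 s association and 600–3600 s dissociation at 25 °C, running buffer containing 150 mM NaCl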
Protocol: as §1

In order of rising “kd ratio pH 7.4/6.0” value:
1. B40  10
2. B25  12
3. B32  31
4. B42  34
5. B49  35
6. B23  36
7. B43  36
8. B34  39
9. B24  40
10. B26  41
11. B46  41
12. B47  41
13. B39  45
14. B48  45
15. B27  49
16. B29  54
17. B51  54
18. B44  58
19. B37  59
20. B30  61
21. B41  62
22. B38  64
23. B28  69
24. B45  70
25. B35  71
26. B36  85
27. B50  89
28. B31  101
29. B33  116
